These results are taken from US20250011363A1, “OPTIMIZED SHORTENED PEPTIDE THAT BINDS TO ACETYLCHOLINE RECEPTOR, AND USE THEREOF” (SKINMED CO., LTD., priority 2021, published 2025).

This assay has as its target acetylcholine receptor. The assay can be described thus: SPR, acetylcholine receptor on CM5 chip, peptide at 10 uM. For orientation: SPR reads the build-up and loss of mass on a sensor chip optically.

In the case of RRVYSR [6mer-1-548], the Binding affinity (RU) amounted to 123 RU.

With RRSFTR [6mer-1-563], the Binding affinity (RU) was 139 RU. The molecule RKRLRK [6mer-1-570] had a Binding affinity (RU) of 122 RU. In turn, RRGVRK [6mer-1-553] showed a Binding affinity (RU) of 128 RU. Next, RKVYLK [6mer-1-561]: 131 RU. Next, KRVICR [6mer-1-544]: 149 RU; KRWQQK [6mer-1-568]: 147 RU; KKRVSR [6mer-1-567]: 136 RU. RRVITK [6mer-1-569]: the Binding affinity (RU) was 148 RU. As to RKLLCK [6mer-1-571], the Binding affinity (RU) turned out to be 154 RU. KRSVTR [6mer-1-554] returned a Binding affinity (RU) of 131 RU.

The molecule RRRLTK [6mer-1-559] registered a Binding affinity (RU) of 139 RU. In turn, KRSITK [6mer-1-564] gave a Binding affinity (RU) of 139 RU. RRLIQR [6mer-1-558]: the Binding affinity (RU) worked out at 139 RU. For KRSIRR [6mer-1-565], the Binding affinity (RU) was found to be 151 RU. As to RRLICR [6mer-1-550], the Binding affinity (RU) came to 148 RU. Next, KKSFCR [6mer-1-566]: 148 RU; RRSYRK [6mer-1-545]: 127 RU. KKSYQR [6mer-1-549] displayed a Binding affinity (RU) of 142 RU. On to KRQVQK [6mer-1-557], for which the Binding affinity (RU) worked out at 128 RU. In the case of RKVQQR [6mer-1-547], the Binding affinity (RU) was 148 RU. KRGRLR [6mer-1-551] had a Binding affinity (RU) of 142 RU. Turning to KKGFTK [6mer-1-556], the Binding affinity (RU) amounted to 145 RU. RKLVQR [6mer-1-546] yielded a Binding affinity (RU) of 123 RU.

In the case of KKWYLK [6mer-1-555], the Binding affinity (RU) was 128 RU.

RKRYRK [6mer-1-552] had a Binding affinity (RU) of 144 RU. RRSFSK [6mer-1-560] showed a Binding affinity (RU) of 127 RU.

On to KRSYQR [6mer-1-562], for which the Binding affinity (RU) came out at 148 RU.
